Results on two molecules are retold here after US20240192215A1 (E AND S HEALTHCARE, published 2024).

Test [1] deals with T1, Peptide_005 (human).
T1 construct: 15-mer on microarray; not native form, recombinant insert region
T1 peptide: ADVHSQHHHHHHHHV
In words: peptide microarray, 1 ug/mL. How it is done: (§1) 5, 1, 0.2, 0.04, 0.008 and 0.0016 μg/mL serial dilutions were incubated on a single multi-well microarray slide at 30° C. for 1 hour. The slide includes 21 individual mini-arrays (one mini-array per sample dilution).
(§2) DyLight 650 was used as a label. False-positive binding to a peptide was evaluated by performing one additional control incubation in which only a secondary antibody was applied on the same microarray slide. Before performing each step, the microarrays were washed with a washing buffer.

Test [2] deals with T2, Peptide_004 (human).
T2 construct: 15-mer on microarray; not native form, recombinant insert region
T2 peptide: AADVHSQHHHHHHHH
Briefly: peptide microarray, 1 ug/mL. How it is done:
as §1, §2

The target of test [3] is T3, Peptide_010.
T3 peptide: QHHHHHHHHVKQIES
In words: peptide microarray, anti-mouse IgG DyLight 650, MMC2 heatmap (Example 17).

Test [4] deals with T4, Peptide_076.
T4 peptide: VDDCQDVASECEVKC
The description is as above.

The target in test [5] is T5, Peptide_107.
T5 peptide: SGANKEKLEATINEL
Described as above.

The target in test [6] is T6, Peptide_039.
T6 peptide: LVVVDFSATWCGPCK
The description is as above.

The target in test [7] is T7, Peptide_102.
T7 peptide: KVGEFSGANKEKLEA
Described as above.

In test [8] the target is T8, Peptide_066.
T8 peptide: YSNVIFLEVDVDDCQ
The description is as above.

Test [9] addresses T9, Peptide_058.
T9 peptide: FFHSLSEKYSNVIFL
Described as above.

The target of test [10] is T10, Peptide_065.
T10 peptide: KYSNVIFLEVDVDDC
The description is as above.

In test [11] the target is T11, Peptide_014 (human).
T11 construct: 15-mer on microarray; not native form, includes recombinant insert region
T11 peptide: HHHHHVKQIESKTAF
In words: peptide microarray, 1 ug/mL. How it is done:
as §1, §2

In test [12] the target is T12, Peptide_015 (human).
T12 construct: 15-mer on microarray; not native form, includes recombinant insert region
T12 peptide: HHHHVKQIESKTAFQ
Briefly: peptide microarray, 1 ug/mL. The protocol:
as §1, §2

The target in test [13] is T13, Peptide_095 (human).
T13 construct: 15-mer of hTrx1 on microarray
T13 peptide: QFFKKGQKVGEFSGA
In words: peptide microarray, 1 ug/mL. How it is done:
as §1, §2

The target in test [14] is T14, Peptide_092 (human).
T14 construct: 15-mer of hTrx1 on microarray
T14 peptide: PTFQFFKKGQKVGEF
Briefly: peptide microarray, 1 ug/mL. How it is done: as §1, §2

The target of test [15] is T15, Peptide_084 (human).
T15 construct: 15-mer of hTrx1 on microarray
T15 peptide: SECEVKCMPTFQFFK
In words: peptide microarray, 1 ug/mL. The protocol:
as §1, §2

Test [16] concerns the target T16, Peptide_022 (human).
T16 construct: 15-mer of hTrx1 on microarray
T16 peptide: IESKTAFQEALDAAG
In words: peptide microarray, 1 ug/mL. How it is done: as §1, §2

For test [17], the target named is T17, Peptide_018 (human).
T17 construct: 15-mer on microarray; not native form, includes recombinant insert region; also called HVKQIESKTAFQEAL
T17 peptide: HVKQIESKTAFQEAL
In words: peptide microarray, 1 ug/mL. The protocol:
as §1, §2

Test [18] has as its target T18, Peptide_025 (human).
T18 construct: 15-mer of hTrx1 on microarray
T18 peptide: KTAFQEALDAAGDKL
In words: peptide microarray, 1 ug/mL. How it is done: as §1, §2

Test [19] addresses T19, Peptide_012 (human).
T19 construct: 15-mer on microarray; not native form, includes recombinant insert region
T19 peptide: HHHHHHHVKQIESKT
Briefly: peptide microarray, 1 ug/mL. How it is done:
as §1, §2

Test [20] addresses T20, Peptide_086 (human).
T20 construct: 15-mer of hTrx1 on microarray
T20 peptide: CEVKCMPTFQFFKKG
Briefly: peptide microarray, 1 ug/mL. The protocol: as §1, §2

Test [21] concerns the target T21, Peptide_019 (human).
T21 construct: 15-mer of hTrx1 on microarray
T21 peptide: VKQIESKTAFQEALD
In words: peptide microarray, 1 ug/mL. How it is done: as §1, §2

For test [22], the target named is T22, Peptide_013 (human).
T22 construct: 15-mer on microarray; not native form, includes recombinant insert region
T22 peptide: HHHHHHVKQIESKTA
In words: peptide microarray, 1 ug/mL. How it is done:
as §1, §2

The target in test [23] is T23, Peptide_045 (human).
T23 construct: 15-mer of hTrx1 on microarray
T23 peptide: SATWCGPCKMIKPFF
In words: peptide microarray, 1 ug/mL. The protocol:
as §1, §2

Test [24] has as its target T24, Peptide_085 (human).
T24 construct: 15-mer of hTrx1 on microarray
T24 peptide: ECEVKCMPTFQFFKK
Briefly: peptide microarray, 1 ug/mL. The protocol:
as §1, §2

Test [25] concerns the target T25, Peptide_020 (human).
T25 construct: 15-mer of hTrx1 on microarray
T25 peptide: KQIESKTAFQEALDA
In words: peptide microarray, 1 ug/mL. The protocol:
as §1, §2

The target in test [26] is T26, Peptide_051 (human).
T26 construct: 15-mer of hTrx1 on microarray
T26 peptide: PCKMIKPFFHSLSEK
Briefly: peptide microarray, 1 ug/mL. How it is done:
as §1, §2

In test [27] the target is T27, Peptide_023 (human).
T27 construct: 15-mer of hTrx1 on microarray
T27 peptide: ESKTAFQEALDAAGD
In words: peptide microarray, 1 ug/mL. How it is done: as §1, §2

Test [28] deals with T28, Peptide_094 (human).
T28 construct: 15-mer of hTrx1 on microarray
T28 peptide: FQFFKKGQKVGEFSG
In words: peptide microarray, 1 ug/mL. How it is done:
as §1, §2

Test [29] deals with T29, Peptide_021 (human).
T29 construct: 15-mer of hTrx1 on microarray
T29 peptide: QIESKTAFQEALDAA
Briefly: peptide microarray, 1 ug/mL. How it is done:
as §1, §2

In test [30] the target is T30, Peptide_093 (human).
T30 construct: 15-mer of hTrx1 on microarray
T30 peptide: TFQFFKKGQKVGEFS
Briefly: peptide microarray, 1 ug/mL. The protocol: as §1, §2

Test [31] has as its target T31, Peptide_024 (human).
T31 construct: 15-mer of hTrx1 on microarray
T31 peptide: SKTAFQEALDAAGDK
Briefly: peptide microarray, 1 ug/mL. How it is done:
as §1, §2

B1: monoclonal antibody B266-1 (antibody, human IgG1)
light: QIVLTQSPAIMSASPGEKVTMTCSASSRISYMYWYQQKPGTSPKRWIYDTSKLASGVPARFSGSGSGTSYSLTISTMEAEDAATYYCHQRSSYPTFGAGTKLELKSVAAPSVFIFPPSDEQLKSGTASVVCLLNNFYPREAKVQWKVDNALQSGNSQESVTEQDSKDSTYSLSSTLTLSKADYEKHKVYACEVTHQGLSSPVTKSFNRGEC
heavy: not shown
notes: B266 with the Fc part changed to human IgG1; also called B266-1 (Trx1-hIgG1); B266-1 (hTrx1-hIgG1)
Turning to B1, the “signal (blank-control = 1)” value in test [1] is 3.58; in test [2] it was 2.71.

B2: monoclonal antibody B264 (antibody, mouse IgG1, kappa, V domains shown)
VH: QVQLQQSGAELARPGASVKMSCKASGYTFTSYTMHWVKQRPGQGLEWIGYINPTSDYTNYNQKFKDKATLTADKSSSTAYMQLSSLTSEDSAVYFCASEGGFLYYFDYWGQGTTLTVSS
VL: DVLMTQTPLSLPVSLGDQASISCRSSQSIVHSNGNTYLEWYLQKPGQSPKLLIYKVSNRFSGVPDRFSGSGSGTDFTLKISRVEAEDLGVYYCFQGSHVPYTFGGGTKLEIKR
notes: also called AB264; B264 (Trx1-mIgG1)
With B2, the binding result in test [3] is on record as “no binding (tested: 5 ug/mL)”; in test [4] it was “no binding (tested: 5 ug/mL)”; in test [5] it was “no binding (tested: 5 ug/mL)”; in test [6], “binds”; in [7] it was “no binding (tested: 5 ug/mL)”; in test [8] it was “no binding (tested: 5 ug/mL)”. In addition, the binding result in [9] and in [10] was “no binding (tested: 5 ug/mL)” each time. Besides, the “signal (blank-control = 1)” value came to 6.71 in [11]; 5.11 in [12]; 3.52 in test [13]; 9.76 in test [14]; 3.26 in test [15]; 5.88 in test [16]. For the same molecule, the “signal (blank-control = 1)” value in [17] is 5.52; in [18], 7.24; in [19], 3.65; in test [20], 1.56; in test [21] it was 1.67; in test [22] it was 4.05. For the same molecule, the “signal (blank-control = 1)” value was found to be 5.11 in [23]; 3.56 in test [24]; 2.3 in [25]; 3.91 in test [26]; 1.19 in test [27]; 3.26 in test [28]. Also, the “signal (blank-control = 1)” value stood at 2.48 in [29], 5.33 in test [30] and 6.5 in test [31].
